Measurements published in paper PMC4703863.

Key:
His6-T7 RNA polymerase [1] = biological target: T1, His6-T7 RNA polymerase (bacteriophage T7, UniProt P00573 1-883); experiment: smFRET; no NTPs; ~0.2 FRET; Transcription-scanning buffer: 40 mM Tris-HCl pH 7.9, 5 mM Mg2+, 60 mM Na+, 0.2 mg/ml BSA, 2 mM Trolox, PCA/PCD; 0.5-5 nM RNAP, 20 nM AID; temperature and ssDNA
His6-T7 RNA polymerase [2] = biological target: T1, His6-T7 RNA polymerase; experiment: smFRET; no NTPs; ~0.85 FRET; Transcription-scanning buffer: 40 mM Tris-HCl pH 7.9, 5 mM Mg2+, 60 mM Na+, 0.2 mg/ml BSA, 2 mM Trolox, PCA/PCD; 0.5-5 nM RNAP, 20 nM AID; temperature and ssDNA
His6-T7 RNA polymerase [3] = biological target: T1, His6-T7 RNA polymerase; experiment: smFRET; no NTPs; ~0.95 FRET; Transcription-scanning buffer: 40 mM Tris-HCl pH 7.9, 5 mM Mg2+, 60 mM Na+, 0.2 mg/ml BSA, 2 mM Trolox, PCA/PCD; 0.5-5 nM RNAP, 20 nM AID; temperature and ssDNA
His6-T7 RNA polymerase [4] = biological target: T1, His6-T7 RNA polymerase; experiment: smFRET; no NTPs; ~0.4 FRET; Transcription-scanning buffer: 40 mM Tris-HCl pH 7.9, 5 mM Mg2+, 60 mM Na+, 0.2 mg/ml BSA, 2 mM Trolox, PCA/PCD; 0.5-5 nM RNAP, 20 nM AID; temperature and ssDNA
His6-T7 RNA polymerase [5] = biological target: T1, His6-T7 RNA polymerase; experiment: smFRET; no NTPs; Transcription-scanning buffer: 40 mM Tris-HCl pH 7.9, 5 mM Mg2+, 60 mM Na+, 0.2 mg/ml BSA, 2 mM Trolox, PCA/PCD; 0.5-5 nM RNAP, 20 nM AID; temperature and ssDNA

T1 sequence (P00573 whole entry): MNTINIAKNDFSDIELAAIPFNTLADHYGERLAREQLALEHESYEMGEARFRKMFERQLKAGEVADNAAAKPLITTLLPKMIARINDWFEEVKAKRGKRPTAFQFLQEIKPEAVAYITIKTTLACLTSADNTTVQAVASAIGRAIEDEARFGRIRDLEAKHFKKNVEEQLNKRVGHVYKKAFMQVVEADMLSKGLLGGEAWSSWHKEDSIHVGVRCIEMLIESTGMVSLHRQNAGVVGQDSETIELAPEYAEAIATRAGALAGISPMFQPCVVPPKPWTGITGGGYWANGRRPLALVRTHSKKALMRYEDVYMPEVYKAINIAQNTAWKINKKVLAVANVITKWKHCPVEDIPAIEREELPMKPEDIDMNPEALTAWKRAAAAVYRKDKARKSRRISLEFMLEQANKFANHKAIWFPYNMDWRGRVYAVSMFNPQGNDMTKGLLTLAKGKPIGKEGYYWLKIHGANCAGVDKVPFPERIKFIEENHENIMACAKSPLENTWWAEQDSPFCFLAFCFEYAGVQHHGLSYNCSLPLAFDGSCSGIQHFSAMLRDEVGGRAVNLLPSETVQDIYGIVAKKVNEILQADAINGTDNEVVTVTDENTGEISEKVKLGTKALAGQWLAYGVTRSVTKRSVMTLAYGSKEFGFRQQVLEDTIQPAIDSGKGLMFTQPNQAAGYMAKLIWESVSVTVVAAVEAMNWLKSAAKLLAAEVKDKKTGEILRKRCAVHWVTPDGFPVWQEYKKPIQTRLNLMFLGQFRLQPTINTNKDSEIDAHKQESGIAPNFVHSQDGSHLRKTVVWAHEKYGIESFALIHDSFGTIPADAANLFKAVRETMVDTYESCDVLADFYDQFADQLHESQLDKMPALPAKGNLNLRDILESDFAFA

B1: 69/66-mer T7 promoter dsDNA (promoter 39 bp from Cy3 end) (dsDNA)
DNA 1: TTTCAGAGATGCATAATACGACTCACTATAGGGAGAAAAGGGGAAAGCAAAGAGGAAAGGTGAGGAGGT
DNA 2: ACCTCCTCACCTTTCCTCTTTGCTTTCCCCTTTTCTCCCTATAGTGAGTCGTATTATGCATCTCTG
Does B1 bind (His6-T7 RNA polymerase [1])?
Result: binds

B2: T7 promoter dsDNA shifted 20 bp downstream (19 bp from Cy3 end) (dsDNA)
DNA 1: TTTAAGAGGAAAGGTGAGGAGGTCAGAGATGCATAATACGACTCACTATAGGGAGAAAAGGGGAAAGCA
DNA 2: TGCTTTCCCCTTTTCTCCCTATAGTGAGTCGTATTATGCATCTCTGACCTCCTCACCTTTCCTCTT
Does B2 bind (His6-T7 RNA polymerase [2])?
Result: binds

B3: T7 promoter dsDNA shifted 30 bp downstream (9 bp from Cy3 end) (dsDNA)
DNA 1: TTTGGGGAAAGCAAAGAGGAAAGGTGAGGAGGTCAGAGATGCATAATACGACTCACTATAGGGAGAAAA
DNA 2: TTTTCTCCCTATAGTGAGTCGTATTATGCATCTCTGACCTCCTCACCTTTCCTCTTTGCTTTCCCC
Does B3 bind (His6-T7 RNA polymerase [3])?
Result: binds

B4: T7 promoter dsDNA shifted 10 bp downstream (29 bp from Cy3 end) (dsDNA)
DNA 1: TTTGTGAGGAGGTCAGAGATGCATAATACGACTCACTATAGGGAGAAAAGGGGAAAGCAAAGAGGAAAG
DNA 2: CTTTCCTCTTTGCTTTCCCCTTTTCTCCCTATAGTGAGTCGTATTATGCATCTCTGACCTCCTCAC
Does B4 bind (His6-T7 RNA polymerase [4])?
Result: binds

B5: No-promoter dsDNA 66-mer (dsDNA)
DNA 1: CAGAGATGCAGCCGTCCGTATCCGTATTGTAGAAAAGGGGAAAGCAAAGAGGAAAGGTGAGGAGGT
DNA 2: ACCTCCTCACCTTTCCTCTTTGCTTTCCCCTTTTCTACAATACGGATACGGACGGCTGCATCTCTG
Does B5 bind (His6-T7 RNA polymerase [5])?
Result: no binding
